Experimental data taken from patent US10314925B2, “Thymidine kinase” (priority 2004, dated 2019).

B1: TkMut4 (nucleic acid)
DNA: ATGGCTTCGTACCCCTGCCATCAACACGCGTCTGCGTTCGACCAGGCTGCGCGTTCTCGCGGCCATAGCAACCGACGTACGGCGTTGCGCCCTCGCCGGCAGCAAGAAGCCACGGAAGTCCGCCTGGAGCAGAAAATGCCCACGCTACTGCGGGTTTATATAGACGGTCCTCACGGGATGGGGAAAACCACCACCACGCAACTGCTGGTGGCCCTGGGTTCGCGCGACGATATCGTCTACGTACCCGAGCCGATGACTTACTGGCAGGTGCTGGGGGCTTCCGAGACAATCGCGAACATCTACACCACACAACACCGCCTCGACCAGGGTGAGATATCGGCCGGGGACGCGGCGGTGGTAATGACAAGCGCCCAGATAACAATGGGCATGCCTTATGCCGTGACCGACGCCGTTCTGGCTCCTCATGTCGGGGGGGAGGCTGGGAGTTCACATGCCCCGCCCCCGGCCCTCACCCTCATCTTCGACCGCCATCCCATCGCCGCCCTCCTGTGCTACCCGGCCGCGCGATACCTTATGGGCAGCATGACCCCCCAAGCCGTGCTGGCGTTCGTGGCCCTCATCCCGCCGACCTTGCCCGGCACAAACATCGTGTTGGGGGCCCTTCCGGAGGACAGACACATCGACCGCCTGGCCAAACGCCAGCGCCCCGGCGAGCGGCTTGACCTGGCTATGCTGGCCGCGATTCGCCGCGTTTACGGGCTGCTTGCCAATACGGTGCGGTATCTGCAGGGCGGCGGGTCGTGGTGGGAGGATTGGGGACAGCTTTCGGGGACGGCCGTGCCGCCCCAGGGTGCCGAGCCCCAGAGCAACGCGGGCCCACGACCCCATATCGGGGACACGTTATTTACCCTGTTTCGGGCCCCCGAGTTGCTGGCCCCCAACGGCGACCTGTATAACGTGTTTGCCTGGGCCTTGGACGTCTTGGCCAAACGCCTCCGTCCCATGCACGTCTTTATCCTGGATTACGACCAATCGCCCGCCGGCTGCCGGGACGCCCTGCTGCAACTTACCTCCGGGATGGTCCAGACCCACGTCACCACCCCAGGCTCCATACCGACGATCTGCGACCTGGCGCGCACGTTTGCCCGGGAGATGGGGGAGGCTAACTGA
modifications: HSV-1 thymidine kinase mutant sequence.
B2: TkMut24 (nucleic acid)
DNA: ATGGCTTCGTACCCCTGCCATCAACACGCGTCTGCGTTCGACCAGGCTGCGCGTTCTCGCGGCCATAGCAACCGACGTACGGCGTTGCGCCCTCGCCGGCAGCAAGAAGCCACGGAAGTCCGCCTGGAGCAGAAAATGCCCACGCTACTGCGGGTTTATATAGACGGTCCTCACGGGATGGGGAAAACCACCACCACGCAACTGCTGGTGGCCCTGGGTTCGCGCGACGATATCGTCTACGTACCCGAGCCGATGACTTACTGGCAGGTGCTGGGGGCTTCCGAGACAATCGCGAACATCTACACCACACAACACCGCCTCGACCAGGGCGAGATATCGGCCGGGGACGCGGCGGTGGTAATGACAAGCGCCCAGATAACAATGGGCATGCCTTATGCCGTGACCGACGCCGTTCTGGCTCCTCATGTCGGGGGGGAGGCTGGGAGTTCACATGCCCCGCCCCCGGCCCTCACCCTCATCTTCGACCGCCATCCCATCGCCGCCCTCCTGTGCTACCCGGCCGCGCGATACCTTATGGGCAGCATGACCCCCCAAGCCGTGCTGGCGTTCGTGGCCCTCATCCCGCCGACCTTGCCCGGCACAAACATCGTGTTGGGGGCCCTTCCGGAGGACAGACACATCGACCGCCTGGCCAAACGCCAGCGCCCCGGCGAGCGGCTTGACCTGGCTATGCTGGCCGCGATTCGCCGCGTTTACGGGCTGCTTGCCAATACGGTGCGGTATCTGCAGGGCGGCGGGTCGTGGTGGGAGGATTGGGGACAGCTTTCGGGGACGGCCGTGCCGCCCCAGGGTGCCGAGCCCCAGAGCAACGCGGGCCCACGACCCCATATCGGGGACACGTTATTTACCCTGTTTCGGGCCCCCGAGTTGCTGGCCCCCAACGGCGACCTGTATAACGTGTTTGCCTGGGCCTTGGACGTCTTGGCCAAACGCCTCCGTCCCATGCACGTCTTTATCCTGGATTACGACCAATCGCCCGCCGGCTGCCGGGACGCCCTGCTGCAACTTACCTCCGGGATGGTCCAGACCCACGTCACCACCCCAGGCTCCATACCGACGATCTGCGACCTGGCGCGCACGTTTGCCCGGGAGATGGGGGAGGCTAACTGA
modifications: HSV-1 thymidine kinase mutant sequence.
B3: TkMut234 (nucleic acid)
DNA: ATGGCTTCGTACCCCTGCCATCAACACGCGTCTGCGTTCGACCAGGCTGCGCGTTCTCGCGGCCATAGCAACCGACGTACGGCGTTGCGCCCTCGCCGGCAGCAAGAAGCCACGGAAGTCCGCCTGGAGCAGAAAATGCCCACGCTACTGCGGGTTTATATAGACGGTCCTCACGGGATGGGGAAAACCACCACCACGCAACTGCTGGTGGCCCTGGGTTCGCGCGACGATATCGTCTACGTACCCGAGCCGATGACTTACTGGCAGGTGCTGGGGGCTTCCGAGACAATCGCGAACATCTACACCACACAACACCGCCTCGACCAGGGCGAGATATCGGCCGGGGACGCGGCGGTGGTAATGACAAGCGCCCAGATAACAATGGGCATGCCTTATGCCGTGACCGACGCCGTTCTGGCTCCTCATGTCGGGGGGGAGGCTGGGAGTTCACATGCCCCGCCCCCGGCCCTCACCCTCATCTTCGACCGCCATCCCATCGCCGCCCTCCTGTGCTACCCGGCCGCGCGATACCTTATGGGCTCCATGACCCCCCAAGCCGTGCTGGCGTTCGTGGCCCTCATCCCGCCGACCTTGCCCGGCACAAACATCGTGTTGGGGGCCCTTCCGGAGGACAGACACATCGACCGCCTGGCCAAACGCCAGCGCCCCGGCGAGCGGCTTGACCTGGCTATGCTGGCCGCGATTCGCCGCGTTTACGGGCTGCTTGCCAATACGGTGCGGTATCTGCAGGGCGGCGGGTCGTGGTGGGAGGATTGGGGACAGCTTTCGGGGACGGCCGTGCCGCCCCAGGGTGCCGAGCCCCAGAGCAACGCGGGCCCACGACCCCATATCGGGGACACGTTATTTACCCTGTTTCGGGCCCCCGAGTTGCTGGCCCCCAACGGCGACCTGTATAACGTGTTTGCCTGGGCCTTGGACGTCTTGGCCAAACGCCTCCGTCCCATGCACGTCTTTATCCTGGATTACGACCAATCGCCCGCCGGCTGCCGGGACGCCCTGCTGCAACTTACCTCCGGGATGGTCCAGACCCACGTCACCACCCCAGGCTCCATACCGACGATCTGCGACCTGGCGCGCACGTTTGCCCGGGAGATGGGGGAGGCTAACTGA
modifications: HSV-1 thymidine kinase mutant sequence.
B4: TkMut34 (nucleic acid)
DNA: ATGGCTTCGTACCCCTGCCATCAACACGCGTCTGCGTTCGACCAGGCTGCGCGTTCTCGCGGCCATAGCAACCGACGTACGGCGTTGCGCCCTCGCCGGCAGCAAGAAGCCACGGAAGTCCGCCTGGAGCAGAAAATGCCCACGCTACTGCGGGTTTATATAGACGGTCCTCACGGGATGGGGAAAACCACCACCACGCAACTGCTGGTGGCCCTGGGTTCGCGCGACGATATCGTCTACGTACCCGAGCCGATGACTTACTGGCAGGTGCTGGGGGCTTCCGAGACAATCGCGAACATCTACACCACACAACACCGCCTCGACCAGGGTGAGATATCGGCCGGGGACGCGGCGGTGGTAATGACAAGCGCCCAGATAACAATGGGCATGCCTTATGCCGTGACCGACGCCGTTCTGGCTCCTCATGTCGGGGGGGAGGCTGGGAGTTCACATGCCCCGCCCCCGGCCCTCACCCTCATCTTCGACCGCCATCCCATCGCCGCCCTCCTGTGCTACCCGGCCGCGCGATACCTTATGGGCTCCATGACCCCCCAAGCCGTGCTGGCGTTCGTGGCCCTCATCCCGCCGACCTTGCCCGGCACAAACATCGTGTTGGGGGCCCTTCCGGAGGACAGACACATCGACCGCCTGGCCAAACGCCAGCGCCCCGGCGAGCGGCTTGACCTGGCTATGCTGGCCGCGATTCGCCGCGTTTACGGGCTGCTTGCCAATACGGTGCGGTATCTGCAGGGCGGCGGGTCGTGGTGGGAGGATTGGGGACAGCTTTCGGGGACGGCCGTGCCGCCCCAGGGTGCCGAGCCCCAGAGCAACGCGGGCCCACGACCCCATATCGGGGACACGTTATTTACCCTGTTTCGGGCCCCCGAGTTGCTGGCCCCCAACGGCGACCTGTATAACGTGTTTGCCTGGGCCTTGGACGTCTTGGCCAAACGCCTCCGTCCCATGCACGTCTTTATCCTGGATTACGACCAATCGCCCGCCGGCTGCCGGGACGCCCTGCTGCAACTTACCTCCGGGATGGTCCAGACCCACGTCACCACCCCAGGCTCCATACCGACGATCTGCGACCTGGCGCGCACGTTTGCCCGGGAGATGGGGGAGGCTAACTGA
modifications: HSV-1 thymidine kinase mutant sequence.

Assays:
[1] = system: circulating modified cells; settings: six patients who developed GvHD and received ganciclovir; cited from earlier work
[2] = system: HSV-tk; assay: RT-PCR of HSV-tk mutants, RNA from Am12 supernatants; set-up: species or system HSV-1; settings: for lower band (spliced form): TKA1/TKB1 primers
Excerpt: After sequence confirmation of SFCMM-3 HSV-tk mutants (FIGS. 1A-1C), one plasmid clone of each type was used to transiently transfect E86 cells. SFCMM-3 and TK3 plasmids were used as controls. The supernatant was collected from the E86 cultures and used to stably transduce the amphotropic packaging cell line Am12 as described in Materials and Methods section of Example 2. The resulting cell populations were selected for ΔLNGFR expression.
RNA was extracted from the E86 as well as Am12 culture supernatants containing infectious retroviral particles. RT-PCR reactions were carried out on RNA from E86 and Am12 supernatants using TKA1 and TKB1 primers according to the protocol described in Materials and Methods section of Example 2.

[3] = system: HSV-tk; assay: PCR of genomic DNA from transduced CEM A301 cells; assay type: cell-based, HSV-1; settings: CEM A301, TKA1/TKB1 primers, before and after selection
Method: CEM A301 cells were cultured in RPMI 1640 (Hyclone) supplemented with 10% FBS (Hyclone) and 2 mM glutamine. CEM A301 cells were infected with Am12 culture supernatant containing SFCMM-3 HSV-tk mutants 2 and 234. The day before transduction 5×10^5 cells/ml were cultured. Transduction was then performed by one centrifugation cycle of retroviral vector particles on cells. After the transduction phase, cells were collected and the percentage of actually transduced cells evaluated by FACS analysis. PBLs from three different donors were transduced (as described in Materials and Methods section of Example 2) with Am12 supernatant containing SFCMM-3 HSV-tk mutant 2 as well as SFCMM-3.
The transduced cells were then sorted for ΔLNGFR expression and expanded a few days in culture.
One pellet for PCR analysis was prepared from the transduced non selected cells as well as from transduced selected cells as described in Materials and Methods section of Example 2. Genomic DNA was extracted from pellet cells and PCR reaction was carried out with TKA1 and TKB1 or TKY1 and TKY2 or TKZ1 and TKZ2 primers (as indicated in the table below) in a 25 μl reaction mixture containing 100-500 ng of genomic DNA, 1×PCR Buffer with 1.5 mM of MgCl2 (Applied Biosystems), […] of each dNTPs, 300 nM of each primer, 1.25 Units of AmpliTaq Gold (Applied Biosystems). The PCR cycling profile consisted of a first denaturation step for 15 min at 94° C. followed by 40 cycles with denaturation for 30 s at 94° C., annealing for 50 s at 60° C. and extension for 1 min at 72° C., and one final extension step of 10 min at 72° C., […] Ten microliters of amplified product were analyzed by agarose gel electrophoresis.

Row | Molecule | average decrease in absolute number of circulating modified cells [1] [%] | spliced product compared to TK3 and SFCMM-3 (ethidium bromide signal) [2] | lower band (spliced form) [2] | additional bands [2] | lower band (spliced form of HSV-tk gene) [3]
1 | Nc1nc(O)c2ncn(COC(CO)CO)c2n1 [ganciclovir] | 85 |  |  |  | 
2 | B1 |  | less represented | lower band is detected |  | 
3 | B2 |  |  | not detected | two very weak bands of approximately 100 and 200 bp are detected | 
4 | B3 |  |  | not detected | two very weak bands of approximately 100 and 200 bp are detected | No lower band is observed
5 | B4 |  | less represented | lower band is detected |  | 
